Measured values published in PMC12418388 (2025).

Target: T1, DDX6 (Homo sapiens, UniProt P26196)
T1 chain: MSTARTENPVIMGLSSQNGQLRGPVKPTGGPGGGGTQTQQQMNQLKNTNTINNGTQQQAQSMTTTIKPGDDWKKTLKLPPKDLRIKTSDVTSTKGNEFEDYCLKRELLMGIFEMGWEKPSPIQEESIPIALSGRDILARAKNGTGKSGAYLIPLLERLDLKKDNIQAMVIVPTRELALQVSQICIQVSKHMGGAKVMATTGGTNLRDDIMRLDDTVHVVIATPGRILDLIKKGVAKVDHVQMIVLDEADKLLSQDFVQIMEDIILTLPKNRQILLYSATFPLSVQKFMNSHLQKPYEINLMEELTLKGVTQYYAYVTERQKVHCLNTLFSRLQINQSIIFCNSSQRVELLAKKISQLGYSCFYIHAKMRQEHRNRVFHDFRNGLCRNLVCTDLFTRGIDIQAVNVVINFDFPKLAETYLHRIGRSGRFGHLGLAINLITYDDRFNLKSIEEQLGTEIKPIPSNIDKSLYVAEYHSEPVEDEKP
Assay: BLI

B1: DDX3X (protein)
chain: SHVAVENALGLDQQFAGLDLNSSDNQSGGSTASKGRYIPPHLRNREATKGFYDKDSSGWSSSKDKDAYSSFGSRSDSRGKSSFFSDRGSGSRGRFDDRGRSDYDGIGSRGDRSGFGKFERGGNSRWCDKSDEDDWSKPLPPSERLEQELFSGGNTGINFEKYDDIPVEATGNNCPPHIESFSDVEMGEIIMGNIELTRYTRPTPVQKHAIPIIKEKRDLMACAQTGSGKTAAFLLPILSQIYSDGPGEALRAMKENGRYGRRKQYPISLVLAPTRELAVQIYEEARKFSYRSRVRPCVVYGGADIGQQIRDLERGCHLLVATPGRLVDMMERGKIGLDFCKYLVLDEADRMLDMGFEPQIRRIVEQDTMPPKGVRHTMMFSATFPKEIQMLARDFLDEYIFLAVGRVGSTSENITQKVVWVEESDKRSFLLDLLNATGKDSLTLVFVETKKGADSLEDFLYHEGYACTSIHGDRSQRDREEALHQFRSGKSPILVATAVAARGLDISNVKHVINFDLPSDIEEYVHRIGRTGRVGNLGLATSFFNERNINITKDLLDLLVEAKQEVPSWLENMAYEHHYKGSSRGRSKSSRFSGGFGARDYRQSSGASSSSFSSSRASSSRSGGGGHGSSRGFGGGGYGGFYNSDGYGGNYNSQGVDWWGN
  Kd: 389 nM
